Our source for the Km and kcat values is PMC5089669, “Biocatalytic Properties and Structural Analysis of Eugenol Oxidase from Rhodococcus jostii RHA1: A Versatile Oxidative Biocatalyst” (Chembiochem, 2016).

Broadly, the Km is the concentration of substrate that gives half-maximal velocity. One may read the kcat as the maximal rate divided by the concentration of active sites.

Substrate in this data set: C=CCc1cc(OC)c(O)c(OC)c1
The data set is described as follows: purified protein. The class given is biochemical, Rhodococcus jostii. The conditions noted are these: Tris-HCl 50 mM, pH 7.5, 25 °C, O2 as co-substrate.

B1: Eugenol oxidase (EUGO) (Rhodococcus jostii RHA1) (protein)
chain: MTRTLPPGVSDERFDAALQRFRDVVGDKWVLSTADELEAFRDPYPVGAAEANLPSAVVSPESTEQVQDIVRIANEYGIPLSPVSTGKNNGYGGAAPRLSGSVIVKTGERMNRILEVNEKYGYALLEPGVTYFDLYEYLQSHDSGLMLDCPDLGWGSVVGNTLDRGVGYTPYGDHFMWQTGLEVVLPQGEVMRTGMGALPGSDAWQLFPYGFGPFPDGMFTQSNLGIVTKMGIALMQRPPASQSFLITFDKEEDLEQIVDIMLPLRINMAPLQNVPVLRNIFMDAAAVSKRTEWFDGDGPMPAEAIERMKKDLDLGFWNFYGTLYGPPPLIEMYYGMIKEAFGKIPGARFFTHEERDDRGGHVLQDRHKINNGIPSLDELQLLDWVPNGGHIGFSPVSAPDGREAMKQFEMVRNRANEYNKDYAAQFIIGLREMHHVCLFIYDTAIPEAREEILQMTKVLVREAAEAGYGEYRTHNALMDDVMATFNWGDGALLKFHEKIKDALDPNGIIAPGKSGIWSQRFRGQNL
notes: homodimer
For B1, the Michaelis constant (Km) stood at 0.8 µM and the catalytic constant (kcat) came to 0.49 s⁻¹.
